Measurements published in paper PMC12560177 (Journal of the American Chemical Society, 2025).
Square brackets hold non-standard residues; d marks the D form. Ends that are not written are not given here. Aib = CC(C)(N)C(=O)O

Experiments:
GLP-1R [1] = target: T1, GLP-1R (Homo sapiens, UniProt P43220); assay: β-arrestin-2 recruitment to GLP-1R measured by BRET; assay type: cell-based; details: for Emax: HEK-293T, read-out: β-arrestin-2 Max response (% GLP-1)
[2] = overweight and obese individuals, 24-week Phase 2 clinical trial; cited from earlier work
[3] = target: glucagon-like peptide-1 receptor (UniProt P43220)
GLP-1R-Rluc8 = GLP-1R-Rluc8 (UniProt P43220)
GLP-1R [4] = target: T1, GLP-1R; details: vs GLP-1; stated as an observation, no reference given; cited from earlier work
[5] = target: glucose-dependent insulinotropic polypeptide receptor (UniProt P48546)
glucagon receptor = glucagon receptor (UniProt P47871)

T1 sequence (P43220 24-463, species assumed): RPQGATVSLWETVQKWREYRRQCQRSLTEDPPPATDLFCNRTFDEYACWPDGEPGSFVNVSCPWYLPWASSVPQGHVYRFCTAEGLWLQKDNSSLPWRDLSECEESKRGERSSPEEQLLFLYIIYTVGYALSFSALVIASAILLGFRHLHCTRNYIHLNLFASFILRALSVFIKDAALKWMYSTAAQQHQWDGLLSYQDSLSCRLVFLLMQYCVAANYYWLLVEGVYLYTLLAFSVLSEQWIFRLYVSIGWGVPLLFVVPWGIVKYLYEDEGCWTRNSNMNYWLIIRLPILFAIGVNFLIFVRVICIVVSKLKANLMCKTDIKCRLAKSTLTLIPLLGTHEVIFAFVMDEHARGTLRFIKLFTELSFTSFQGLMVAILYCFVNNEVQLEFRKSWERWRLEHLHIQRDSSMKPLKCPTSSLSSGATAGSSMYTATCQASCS
Chain of GLP-1R-Rluc8 (P43220 24-463): as the sequence (P43220 24-463, species assumed) above
Chain of glucagon-like peptide-1 receptor (P43220 24-463): as the sequence (P43220 24-463, species assumed) above
Chain of glucose-dependent insulinotropic polypeptide receptor (P48546 22-466): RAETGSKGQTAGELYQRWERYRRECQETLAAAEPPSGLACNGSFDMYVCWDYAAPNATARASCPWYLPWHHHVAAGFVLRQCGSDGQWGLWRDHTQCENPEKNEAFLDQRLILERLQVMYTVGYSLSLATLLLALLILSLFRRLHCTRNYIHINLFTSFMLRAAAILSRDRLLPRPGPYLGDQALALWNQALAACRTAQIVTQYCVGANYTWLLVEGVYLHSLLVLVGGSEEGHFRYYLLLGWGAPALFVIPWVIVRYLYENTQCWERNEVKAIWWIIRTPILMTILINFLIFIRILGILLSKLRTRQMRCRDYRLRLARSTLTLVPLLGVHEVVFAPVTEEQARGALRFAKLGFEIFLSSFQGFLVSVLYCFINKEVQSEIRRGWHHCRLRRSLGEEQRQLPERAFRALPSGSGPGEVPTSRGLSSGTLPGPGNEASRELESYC

| Compound | Emax (GLP-1R [1]) [%] | EC50, cAMP-dependent CRE6x-luciferase reporter gene assay, HEK293 cells [3] [pM] | pEC50 of β-arrestin-2 recruitment to GLP-1R, BRET, HEK293T cells (GLP-1R-Rluc8) | further results |
| --- | --- | --- | --- | --- |
| CC[C@H](C)[C@H](NC(=O)[C@H](Cc1ccccc1)NC(=O)[C@H](C)NC(=O)C(C)(C)NC(=O)[C@H](CCC(N)=O)NC(=O)[C@H](C)NC(=O)[C@H](CCCCNC(=O)COCCOCCNC(=O)CC[C@H](NC(=O)CCCCCCCCCCCCCCCCCCC(=O)O)C(=O)O)NC(=O)[C@H](CCCCN)NC(=O)[C@H](CC(=O)O)NC(=O)[C@H](CC(C)C)NC(=O)[C@](C)(CC(C)C)NC(=O)[C@@H](NC(=O)[C@H](CO)NC(=O)[C@H](Cc1ccc(O)cc1)NC(=O)[C@H](CC(=O)O)NC(=O)[C@H](CO)NC(=O)[C@@H](NC(=O)[C@H](Cc1ccccc1)NC(=O)[C@@H](NC(=O)CNC(=O)[C@H](CCC(N)=O)NC(=O)C(C)(C)NC(=O)[C@@H](N)Cc1ccc(O)cc1)[C@@H](C)O)[C@@H](C)O)[C@@H](C)CC)C(=O)N[C@@H](CCC(=O)O)C(=O)N[C@@H](Cc1ccc(O)cc1)C(=O)N[C@@H](CC(C)C)C(=O)N[C@@H](CC(C)C)C(=O)N[C@@H](CCC(=O)O)C(=O)NCC(=O)NCC(=O)N1CCC[C@H]1C(=O)N[C@@H](CO)C(=O)N[C@@H](CO)C(=O)NCC(=O)N[C@@H](C)C(=O)N1CCC[C@H]1C(=O)N1CCC[C@H]1C(=O)N1CCC[C@H]1C(=O)N[C@@H](CO)C(N)=O [Retatrutide] | 58 ± 5 | – | – | maximal weight loss [2]: 24% |
| GEP44 (peptide) | – | 0.64 | 7.67 | – |
| GLP-1(9–36 amide) | – | – | – | loss in receptor potency of the DPP4-truncated form (GLP-1R [4]): > 1,000 fold |
| H[Aib]QGTFTSDYSKYLDERAAQDFVQWLLDGGPSLRHYLNLVTRQRY-NH2 (C-terminus assumed) [TC0] | 90 ± 5 | – | – | EC50 (GLP-1R [1]): 21400 pM |
| Retatrutide (peptide) | – | 11 | 7.62 | EC50, cAMP-dependent CRE6x-luciferase reporter gene assay, HEK293 cells [5]: 2.2 pM; EC50, cAMP-dependent CRE6x-luciferase reporter gene assay, HEK293 cells (glucagon receptor): 8.2 pM |
